Experimental data from US20170327598A1 (published 2017).
Values belong to the binder of their own block, whether it stands above or below them.

Tests used:
human STAT3 = human STAT3 (human, UniProt P40763 1-770, limits assumed); assay: SPR, Biacore 3000
human STAT3 (Biacore) = human STAT3 (Biacore) (human, UniProt P40763 1-770, limits assumed); assay: SPR
[1] = target: human KRAS (normal human KRAS, full protein) (human, UniProt P01116-2 1-188, limits assumed); assay: SPR, Biacore 3000
[2] = target: endogenous STAT3 of the murine 4T1 cell line (murine, UniProt P42227 2-770); assay: immunoprecipitation from 4T1 lysate, Western blot
Chain of endogenous STAT3 of the murine 4T1 cell line (P42227 2-770 limits assumed): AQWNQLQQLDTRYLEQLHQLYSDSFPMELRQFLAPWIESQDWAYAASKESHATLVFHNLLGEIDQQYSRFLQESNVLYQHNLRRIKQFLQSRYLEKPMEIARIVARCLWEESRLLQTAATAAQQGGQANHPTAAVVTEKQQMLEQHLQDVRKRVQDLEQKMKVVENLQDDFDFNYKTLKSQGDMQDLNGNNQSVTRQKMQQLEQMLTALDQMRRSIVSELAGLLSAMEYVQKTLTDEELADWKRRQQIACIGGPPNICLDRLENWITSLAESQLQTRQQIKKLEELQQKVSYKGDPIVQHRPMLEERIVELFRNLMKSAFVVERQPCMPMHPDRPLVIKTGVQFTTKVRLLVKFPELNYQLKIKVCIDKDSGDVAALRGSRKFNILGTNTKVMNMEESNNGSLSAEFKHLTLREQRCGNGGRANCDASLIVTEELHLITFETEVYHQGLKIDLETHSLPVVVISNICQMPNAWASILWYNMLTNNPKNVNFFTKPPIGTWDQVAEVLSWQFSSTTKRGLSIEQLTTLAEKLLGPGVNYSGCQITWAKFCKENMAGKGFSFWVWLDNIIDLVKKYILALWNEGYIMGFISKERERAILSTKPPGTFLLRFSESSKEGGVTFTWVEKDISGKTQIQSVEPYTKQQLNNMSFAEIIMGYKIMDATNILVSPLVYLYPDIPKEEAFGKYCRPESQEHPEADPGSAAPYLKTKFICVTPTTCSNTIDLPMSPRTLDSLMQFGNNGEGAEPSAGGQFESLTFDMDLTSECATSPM

binding result (human STAT3): no binding (tested: 0-200 nM)
B1: anti-KRAS (G12D) (SEQ ID NO:2) sdAb (VHH)
VHH: EVQLVESGGGSVQTGGSLRLSCAVSGNIGSSYCMGWFRQAPGKKREAVARIVRDGATGYADYVKGRFTISRDSAKNTLYLQMNRLIPEDTAIYYCAADLPPGCLTQAIWNFGYRGQGTLVTVSS

binding result (human STAT3 (Biacore)): no binding
B2: anti-KRAS (G12D) (SEQ ID NO:2) sdAb (VHH)
VHH: B1 VHH

Kd [1]: 126 nM
B3: anti-STAT3 VHH13 (SEQ ID NO:3) sdAb (VHH)
VHH: HVQLVESGGGSVQAGGSLRLSCAASGANGGRSCMGWFRQVPGKEREGVSGISTGGLITYYADSVKGRFTISQDNTKNTLYLQMNSLKPEDTAMYYCATSRFDCYRGSWFNRYMYNSWGQGTQVTVSS

binding result [2]: binds
B4: anti-STAT3 VHH13 (SEQ ID NO:3) sdAb (VHH)
VHH: B3 VHH
